In patent US20200325212:

How the values were obtained:
[1] = target: T1, mLCN2-Fc (bivalent m-Lcn2 fused to human IgG1 Fc)
T1 chain: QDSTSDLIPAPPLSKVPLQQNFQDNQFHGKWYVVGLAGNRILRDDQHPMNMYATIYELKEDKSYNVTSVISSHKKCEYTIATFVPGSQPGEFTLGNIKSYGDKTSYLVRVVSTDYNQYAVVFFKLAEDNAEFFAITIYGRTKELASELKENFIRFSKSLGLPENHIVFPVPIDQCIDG

[2] = target: CTLA4-Fc Mxx9 (non-cleavable mask), P16410
[3] = target: CTLA4-Fc MMP9 (MMP9-cleavable CTLA4-Fc mask; CTLA4-Fc_WT)
Sequence of CTLA4-Fc MMP9 (MMP9-cleavable CTLA4-Fc mask; CTLA4-Fc_WT) (chain, as listed by the source): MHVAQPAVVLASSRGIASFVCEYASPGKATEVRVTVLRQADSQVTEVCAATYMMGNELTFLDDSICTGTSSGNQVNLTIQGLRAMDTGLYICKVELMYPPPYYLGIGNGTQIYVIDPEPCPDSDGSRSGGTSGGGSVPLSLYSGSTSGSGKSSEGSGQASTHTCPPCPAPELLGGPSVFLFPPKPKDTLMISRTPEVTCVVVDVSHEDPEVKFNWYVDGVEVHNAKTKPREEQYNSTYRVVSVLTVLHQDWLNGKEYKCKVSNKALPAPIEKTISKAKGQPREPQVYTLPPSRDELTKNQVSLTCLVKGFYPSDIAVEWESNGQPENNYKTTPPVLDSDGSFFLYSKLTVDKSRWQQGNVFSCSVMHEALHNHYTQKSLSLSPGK

Sequence of CTLA4-Fc Mxx9 (non-cleavable mask), P16410 (P16410 whole entry, looked up, tested part not stated): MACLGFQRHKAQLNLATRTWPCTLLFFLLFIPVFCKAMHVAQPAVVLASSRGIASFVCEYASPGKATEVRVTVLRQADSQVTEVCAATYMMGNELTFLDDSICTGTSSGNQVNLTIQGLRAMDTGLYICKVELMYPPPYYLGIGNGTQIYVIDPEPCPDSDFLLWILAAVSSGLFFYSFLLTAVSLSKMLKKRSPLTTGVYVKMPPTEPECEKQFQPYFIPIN

B1: recombinant human MMP9 (ProSpecBio) (protein)
chain: APRQRQSTLVLFPGDLRTNLTDRQLAEEYLYRYGYTRVAEMRGESKSLGPALLLLQKQLSLPETGELDSATLKAMRTPRCGVPDLGRFQTFEGDLKWHHHNITYWIQNYSEDLPRAVIDDAFARAFALWSAVTPLTFTRVYSRDADIVIQFGVAEHGDGYPFDGKDGLLAHAFPPGPGIQGDAHFDDDELWSLGKGVVVPTRFGNADGAACHFPFIFEGRSYSACTTDGRSDGLPWCSTTANYDTDDRFGFCPSERLYTQDGNADGKPCQFPFIFQGQSYSACTTDGRSDGYRWCATTANYDRDKLFGFCPTRADSTVMGGNSAGELCVFPFTFLGKEYSTCTSEGRGDGRLWCATTSNFDSDKKWGFCPDQGYSLFLVAAHEFGHALGLDHSSVPEALMYPMYRFTEGPPLHKDDVNGIRHLYGPRPEPEPRPPTTTTPQPTAPPTVCPTGPPTVHPSERPTAGPTGPPSAGPTGPPTAGPSTATTVPLSPVDDACNVNIFDAIAEIGNQLYLFKDGKYWRFSEGRGSRPQGPFLIADKWPALPRKLDSVFEERLSKKLFFFSGRQVWVYTGASVLGPRRLDKLGLGADVAQVTGALRSGRGKMLLFSGRRLWRFDVKAQMVDPRSASEVDRMFPGVPLDTHDVFQYREKAYFCQDRFYWRVSSRSELNQVDQVGYVTYDILQCPED
B1 was tested, and the “cleavage, SDS-PAGE” value [1] was “but not the m-Lcn2-Fc”, the “cleavage, SDS-PAGE” value [2] was “Addition of MMP9 had no effect on CTLA4-Fc Mxx9 bands” and the “cleavage, SDS-PAGE” value [3] was “Recombinant MMP9 was demonstrated to effectively cleave the CTLA4-MMP9-Fc mask”. The “intensity of the full-length band, time course of cleavage at 37 °C, SDS-PAGE” value [3] was “At 2 h the intensity of the full-length band was ~50% of the 0 h timepoint”.
